What all share (experiment): cell-based or functional assay
Test [1] concerns the target T1, glucagon receptor (human, UniProt P47871 26-477).
In test [2] the target is T2, GLP-1 receptor (UniProt P43220 24-463, limits assumed).
Test [3] addresses T2, GLP-1 receptor. This is another data set of the same source.
Target sequence in this assay (P43220 24-463 limits assumed): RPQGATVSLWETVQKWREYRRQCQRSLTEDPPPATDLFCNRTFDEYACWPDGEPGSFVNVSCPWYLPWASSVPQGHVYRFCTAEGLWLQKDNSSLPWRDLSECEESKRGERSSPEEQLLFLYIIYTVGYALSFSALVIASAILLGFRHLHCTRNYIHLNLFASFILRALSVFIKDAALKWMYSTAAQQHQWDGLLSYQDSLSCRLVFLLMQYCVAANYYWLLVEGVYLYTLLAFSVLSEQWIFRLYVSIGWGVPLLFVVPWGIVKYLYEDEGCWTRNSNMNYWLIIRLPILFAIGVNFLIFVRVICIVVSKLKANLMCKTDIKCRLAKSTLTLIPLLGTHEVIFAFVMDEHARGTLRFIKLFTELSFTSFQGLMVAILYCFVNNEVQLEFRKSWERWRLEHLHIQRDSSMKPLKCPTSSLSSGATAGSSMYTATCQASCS
The target of test [4] is T1, glucagon receptor. The source holds these as a separate data set.
Test [5] has as its target T1, glucagon receptor. This is another data set of the same source.

Read-outs that look alike come from different tables or passages of the source. Numbered stars: 1 amine (or outer) side, 2 acyl side, 3 side chain; on linkers, the order of the positions; unused ones are H or OH. Square brackets hold non-standard residues; d marks the D form. Side chains are listed from the residue outwards. Ends that are not written are not given here. * marks the point of attachment. γGlu = O=C(O)[C@H](CCC(=O)[*:2])N[*:1]; Palmitoyl = CCCCCCCCCCCCCCCC(=O)*; Met(O) = CS(=O)CC[C@H](N)C(=O)O; Myristoyl = CCCCCCCCCCCCCC(=O)*; Nle = CCCC[C@H](N)C(=O)O; Orn = NCCC[C@H](N)C(=O)O; Dab = NCC[C@H](N)C(=O)O; Dap = NC[C@H](N)C(=O)O; Aib = CC(C)(N)C(=O)O; Carbamoyl = NC(=O)*; Ahx = NCCCCCC(=O)O; βAla = NCCC(=O)O; Acm = CC(=O)NC*

T1 sequence (P47871 26-477): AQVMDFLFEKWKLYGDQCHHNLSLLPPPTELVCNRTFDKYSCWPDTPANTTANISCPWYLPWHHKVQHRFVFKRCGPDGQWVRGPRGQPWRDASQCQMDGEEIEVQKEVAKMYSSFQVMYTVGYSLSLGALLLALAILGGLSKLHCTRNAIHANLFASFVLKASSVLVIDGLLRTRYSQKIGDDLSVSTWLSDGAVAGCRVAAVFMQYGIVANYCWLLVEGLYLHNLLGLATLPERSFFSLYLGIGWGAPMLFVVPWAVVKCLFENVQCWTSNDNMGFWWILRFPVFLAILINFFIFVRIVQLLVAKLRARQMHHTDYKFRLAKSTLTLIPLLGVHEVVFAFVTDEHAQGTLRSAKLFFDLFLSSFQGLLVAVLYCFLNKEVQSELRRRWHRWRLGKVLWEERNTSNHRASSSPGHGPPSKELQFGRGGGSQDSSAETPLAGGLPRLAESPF

On to H[Aib]QGTFTSDK([γGlu-γGlu-Myristoyl])SKYLD[Aib]RRAQDFVC(PEG 40 kDa)WLMNT-NH2 [Peptide 78* (Table 10)], for which the response in the test with glucagon receptor [1] was half-maximal at 0.319 nM (EC50 at Glucagon Receptor). The “EC50 at GLP-1 Receptor” value with GLP-1 receptor [2] turned out to be 0.103 nM.

B1: Peptide Chimera 2-AIB2-K30-acylated (peptide)
peptide: HXQGTFTSDYSKYLDEQAAKEFICWLMNTK
modifications: AIB at position 2; Lys at position 30 acylated with a C18 fatty acyl group; Cys at position 24 comprises a 40 kDa PEG molecule; C-terminal amide
For the molecule B1, the “EC50 at the GLP-1 receptor” value in the test with GLP-1 receptor [3] was 0.465 nM.
For the molecule H[Aib]QGTFTSDK([γGlu-γGlu-Palmitoyl])SKYLD[Aib]RRAQDFVC(PEG 40 kDa)WLMNT-NH2 [Peptide 80* (Table 10)], the “EC50 at Glucagon Receptor” value with glucagon receptor [1] is 0.108 nM. In the test with GLP-1 receptor [2], the “EC50 at GLP-1 Receptor” value was 0.042 nM.

B2: HSDab(Ac)…ibRRAADFVAWLLDTGPSSGAPPPS amide (peptide)
peptide: HS[Dab](Ac)GTFTSDYSKYLD[Aib]RRAADFVAWLLDTGPSSGAPPPS-NH2
modifications: N-terminus assumed
SMILES: CC(=O)NCC[C@H](NC(=O)[C@H](CO)NC(=O)[C@@H](N)Cc1c[nH]cn1)C(=O)NCC(=O)N[C@H](C(=O)N[C@@H](Cc1ccccc1)C(=O)N[C@H](C(=O)N[C@@H](CO)C(=O)N[C@@H](CC(=O)O)C(=O)N[C@@H](Cc1ccc(O)cc1)C(=O)N[C@@H](CO)C(=O)N[C@@H](CCCCN)C(=O)N[C@@H](Cc1ccc(O)cc1)C(=O)N[C@@H](CC(C)C)C(=O)N[C@@H](CC(=O)O)C(=O)NC(C)(C)C(=O)N[C@@H](CCCNC(=N)N)C(=O)N[C@@H](CCCNC(=N)N)C(=O)N[C@@H](C)C(=O)N[C@@H](C)C(=O)N[C@@H](CC(=O)O)C(=O)N[C@@H](Cc1ccccc1)C(=O)N[C@H](C(=O)N[C@@H](C)C(=O)N[C@@H](Cc1c[nH]c2ccccc12)C(=O)N[C@@H](CC(C)C)C(=O)N[C@@H](CC(C)C)C(=O)N[C@@H](CC(=O)O)C(=O)N[C@H](C(=O)NCC(=O)N1CCC[C@H]1C(=O)N[C@@H](CO)C(=O)N[C@@H](CO)C(=O)NCC(=O)N[C@@H](C)C(=O)N1CCC[C@H]1C(=O)N1CCC[C@H]1C(=O)N1CCC[C@H]1C(=O)N[C@@H](CO)C(N)=O)[C@@H](C)O)C(C)C)[C@@H](C)O)[C@@H](C)O
Take B2: in the test with glucagon receptor [4], the “% activity*” value worked out at 113% and the “EC50 (nM) at Glucagon Receptor” value stood at 0.023 nM.
Turning to HS[Dab](Ac)GTFTSDYSKYLD[Aib]RRASDFVSWLLDE [HSDab(Ac)…ibRRASDFVSWLLDE], in the test with glucagon receptor [4], the “% activity*” value is 54% and the “EC50 (nM) at Glucagon Receptor” value was determined as 0.048 nM.
Consider HS[Dab](Ac)GTFTSDYSKYLD[Aib]RRAADFVAWLMDE [Peptide K backbone, Dab(Ac) at position 3], for which, in the test with glucagon receptor [5], the “% activity*” value came out at 86% and it took 0.07 nM to reach a half-maximal effect (EC50 at Glucagon Receptor).
As to H[Aib]QGTFTSDK(Myristoyl)SKYLD[Aib]RRAQDFVC(PEG 40 kDa)WLMNT-NH2 [Peptide 77* (Table 10)], in the test with glucagon receptor [1], the “EC50 at Glucagon Receptor” value turned out to be 21.9 nM. The “EC50 at GLP-1 Receptor” value with GLP-1 receptor [2] stood at 1.46 nM.
For H[Aib]QGTFTSDK([γGlu-γGlu-Palmitoyl])SKYLD[Aib]RRAQDFVQWLMNT-NH2 [Peptide 83 (Table 10)], the “EC50 at GLP-1 Receptor” value with GLP-1 receptor [2] was 0.043 nM.
For the molecule H[Aib]QGTFTSDK([Ala-Ala-Palmitoyl])SKYLD[Aib]RRAQDFVQWLMNT-NH2 [Peptide 82 (Table 10)], the midpoint of the response with glucagon receptor [1], the EC50 at Glucagon Receptor, lay at 0.024 nM. For the same molecule, in the test with GLP-1 receptor [2], the “EC50 at GLP-1 Receptor” value was determined as 0.108 nM.

B3: Peptide 84 (Table 10) (peptide)
peptide: H[Aib]QGTFTSDK([βAla-βAla-Palmitoyl])SKYLD[Aib]RRAQDFVQWLMNT-NH2
modifications: N-terminus assumed
SMILES: CCCCCCCCCCCCCCCC(=O)NCCC(=O)NCCC(=O)NCCCC[C@H](NC(=O)[C@H](CC(=O)O)NC(=O)[C@H](CO)NC(=O)[C@@H](NC(=O)[C@H](Cc1ccccc1)NC(=O)[C@@H](NC(=O)CNC(=O)[C@H](CCC(N)=O)NC(=O)C(C)(C)NC(=O)[C@@H](N)Cc1c[nH]cn1)[C@@H](C)O)[C@@H](C)O)C(=O)N[C@@H](CO)C(=O)N[C@@H](CCCCN)C(=O)N[C@@H](Cc1ccc(O)cc1)C(=O)N[C@@H](CC(C)C)C(=O)N[C@@H](CC(=O)O)C(=O)NC(C)(C)C(=O)N[C@@H](CCCNC(=N)N)C(=O)N[C@@H](CCCNC(=N)N)C(=O)N[C@@H](C)C(=O)N[C@@H](CCC(N)=O)C(=O)N[C@@H](CC(=O)O)C(=O)N[C@@H](Cc1ccccc1)C(=O)N[C@H](C(=O)N[C@@H](CCC(N)=O)C(=O)N[C@@H](Cc1c[nH]c2ccccc12)C(=O)N[C@@H](CC(C)C)C(=O)N[C@@H](CCSC)C(=O)N[C@@H](CC(N)=O)C(=O)N[C@H](C(N)=O)[C@@H](C)O)C(C)C
As to B3, in the test with GLP-1 receptor [2], it took 0.004 nM to reach a half-maximal effect (EC50 at GLP-1 Receptor).
Regarding HSQGTFTSDYSKYLDTRRAAEFVAWL[Nle]DE [Peptide J backbone, Q at position 3], in the test with glucagon receptor [5], the “% activity*” value came to 25%.
Take HS[Dap](Carbamoyl)GTFTSDYSKYLDTRRAAEFVAWL[Nle]DE [Peptide J backbone, Dap(urea) at position 3]: in the test with glucagon receptor [5], the “% activity*” value is 13% and the response was half-maximal at 0.48 nM (EC50 at Glucagon Receptor).
For the molecule H[Aib]QGTFTSDK([Pro-Pro-Palmitoyl])SKYLD[Aib]RRAQDFVQWLMNT-NH2 [Peptide 87 (Table 10)], the “EC50 at Glucagon Receptor” value with glucagon receptor [1] amounted to 0.017 nM. A half-maximal response in the test with GLP-1 receptor [2] (EC50 at GLP-1 Receptor) required 0.009 nM.

B4: Peptide 85 (Table 10) (peptide)
peptide: H[Aib]QGTFTSDK([Ahx-Palmitoyl])SKYLD[Aib]RRAQDFVQWLMNT-NH2
modifications: N-terminus assumed
SMILES: CCCCCCCCCCCCCCCC(=O)NCCCCCC(=O)NCCCC[C@H](NC(=O)[C@H](CC(=O)O)NC(=O)[C@H](CO)NC(=O)[C@@H](NC(=O)[C@H](Cc1ccccc1)NC(=O)[C@@H](NC(=O)CNC(=O)[C@H](CCC(N)=O)NC(=O)C(C)(C)NC(=O)[C@@H](N)Cc1c[nH]cn1)[C@@H](C)O)[C@@H](C)O)C(=O)N[C@@H](CO)C(=O)N[C@@H](CCCCN)C(=O)N[C@@H](Cc1ccc(O)cc1)C(=O)N[C@@H](CC(C)C)C(=O)N[C@@H](CC(=O)O)C(=O)NC(C)(C)C(=O)N[C@@H](CCCNC(=N)N)C(=O)N[C@@H](CCCNC(=N)N)C(=O)N[C@@H](C)C(=O)N[C@@H](CCC(N)=O)C(=O)N[C@@H](CC(=O)O)C(=O)N[C@@H](Cc1ccccc1)C(=O)N[C@H](C(=O)N[C@@H](CCC(N)=O)C(=O)N[C@@H](Cc1c[nH]c2ccccc12)C(=O)N[C@@H](CC(C)C)C(=O)N[C@@H](CCSC)C(=O)N[C@@H](CC(N)=O)C(=O)N[C@H](C(N)=O)[C@@H](C)O)C(C)C
On to B4, for which the midpoint of the response with glucagon receptor [1], the EC50 at Glucagon Receptor, lay at 0.01 nM. For the same molecule, the response with GLP-1 receptor [2] was half-maximal at 0.005 nM (EC50 at GLP-1 Receptor).
The matching figures for H[Aib]QGTFTSDK([Ala-Ala-Myristoyl])SKYLD[Aib]RRAQDFVC(PEG 40 kDa)WLMNT-NH2 [Peptide 81* (Table 10)]: 0.597 nM and 0.271 nM.
In the case of HS[Orn](Ac)GTFTSDYSKYLDTRRAAEFVAWL[Nle]DE [Peptide J backbone, Orn(Ac) at position 3], in the test with glucagon receptor [5], the “% activity*” value amounted to 7% and the “EC50 at Glucagon Receptor” value was 0.92 nM.
HSQGTFTSDYSKYLD[Aib]RRAADFVAWLMDE [Peptide K backbone, Q at position 3]: the “% activity*” value in the test with glucagon receptor [5] came out at 15%.
Regarding HSC(Acm)GTFTSDYSKYLDTRRAAEFVAWL[Nle]DE [Peptide J backbone, C(Acm) at position 3], in the test with glucagon receptor [5], the “% activity*” value was found to be 33%.
For the molecule H[Aib]QGTFTSDK(Palmitoyl)SKYLD[Aib]RRAQDFVQWLMNT-NH2 [Peptide 50 (Table 10)], the “EC50 at Glucagon Receptor” value with glucagon receptor [1] amounted to 0.572 nM.
Regarding HS[Met(O)]GTFTSDYSKYLDTRRAAEFVAWL[Nle]DE [Peptide J backbone, M(O) at position 3], in the test with glucagon receptor [5], the “% activity*” value is 7% and the “EC50 at Glucagon Receptor” value turned out to be 0.91 nM.
Regarding H[Aib]QGTFTSDK([Ala-Ala-Palmitoyl])SKYLD[Aib]RRAQDFVC(PEG 40 kDa)WLMNT-NH2 [Peptide 79* (Table 10)], in the test with glucagon receptor [1], the “EC50 at Glucagon Receptor” value stood at 0.102 nM. For the same molecule, a half-maximal response in the test with GLP-1 receptor [2] (EC50 at GLP-1 Receptor) required 0.055 nM.

B5: Peptide 86 (Table 10) (peptide)
peptide: H[Aib]QGTFTSDK([Leu-Leu-Palmitoyl])SKYLD[Aib]RRAQDFVQWLMNT-NH2
modifications: N-terminus assumed
SMILES: CCCCCCCCCCCCCCCC(=O)N[C@@H](CC(C)C)C(=O)N[C@@H](CC(C)C)C(=O)NCCCC[C@H](NC(=O)[C@H](CC(=O)O)NC(=O)[C@H](CO)NC(=O)[C@@H](NC(=O)[C@H](Cc1ccccc1)NC(=O)[C@@H](NC(=O)CNC(=O)[C@H](CCC(N)=O)NC(=O)C(C)(C)NC(=O)[C@@H](N)Cc1c[nH]cn1)[C@@H](C)O)[C@@H](C)O)C(=O)N[C@@H](CO)C(=O)N[C@@H](CCCCN)C(=O)N[C@@H](Cc1ccc(O)cc1)C(=O)N[C@@H](CC(C)C)C(=O)N[C@@H](CC(=O)O)C(=O)NC(C)(C)C(=O)N[C@@H](CCCNC(=N)N)C(=O)N[C@@H](CCCNC(=N)N)C(=O)N[C@@H](C)C(=O)N[C@@H](CCC(N)=O)C(=O)N[C@@H](CC(=O)O)C(=O)N[C@@H](Cc1ccccc1)C(=O)N[C@H](C(=O)N[C@@H](CCC(N)=O)C(=O)N[C@@H](Cc1c[nH]c2ccccc12)C(=O)N[C@@H](CC(C)C)C(=O)N[C@@H](CCSC)C(=O)N[C@@H](CC(N)=O)C(=O)N[C@H](C(N)=O)[C@@H](C)O)C(C)C
With B5, in the test with GLP-1 receptor [2], a half-maximal effect (EC50 at GLP-1 Receptor) was put at 0.006 nM.
HS[Dab](Ac)GTFTSDYSKYLD[Aib]RRATDFVTWLLDE [HSDab(Ac)…ibRRATDFVTWLLDE]: in the test with glucagon receptor [4], the “% activity*” value came to 46% and the “EC50 (nM) at Glucagon Receptor” value came out at 0.057 nM.
Turning to HS[Dab](Ac)GTFTSDYSKYLDTRRAAEFVAWL[Nle]DE [Peptide J backbone, Dab(Ac) at position 3], in the test with glucagon receptor [5], the “% activity*” value was found to be 19% and the “EC50 at Glucagon Receptor” value turned out to be 0.31 nM.

These data come from patent publication US20110190200A1 (INDIANA UNIVERSITY RESEARCH AND TECHNOLOGY, published 2011).
